Results reported in the supplement of paper PMC9112550, “Optimization of the antimicrobial peptide Bac7 by deep mutational scanning” (BMC Biology, 2022).

Tested on: Escherichia coli TOP10
Experiment: shrunken log2 fold change of peptide-encoding DNA abundance (4.5 h post-induction vs induction); higher = less antimicrobial activity (less host growth inhibition)
Details: time post-induction: 4.5 h; library: site-saturation at positions 5, 18, 19, 20
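Note: peptides expressed intracellularly from a pBAD plasmid library in pooled LB shake-flask culture, induced with 0.3% L-arabinose, DNA abundance read by NGS, three biological replicates, DESeq2 with apeglm shrinkage.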

Sequence | shrunken log2 fold change
RRIRHRPPRLPRPRPRPQKAPRP | -0.0296
RRIRWRPPRLPRPRPRPFFWPRP | 1.17
RRIRWRPPRLPRPRPRPSAEPRP | 1.14
RRIRFRPPRLPRPRPRPNHFPRP | -0.0292
RRIRRRPPRLPRPRPRPYVTPRP | -0.383
RRIRQRPPRLPRPRPRPHFTPRP | -0.217
RRIRVRPPRLPRPRPRPAKAPRP | 0.0673
RRIRQRPPRLPRPRPRPYGYPRP | -0.354
RRIRPRPPRLPRPRPRPLNSPRP | -0.262
RRIRMRPPRLPRPRPRPHLIPRP | 0.133
RRIRFRPPRLPRPRPRPWAGPRP | 0.116
RRIRRRPPRLPRPRPRPAFAPRP | 0.456
RRIRERPPRLPRPRPRPTARPRP | 0.258
RRIRPRPPRLPRPRPRPWSFPRP | -0.185
RRIRCRPPRLPRPRPRPILKPRP | -0.263
RRIRNRPPRLPRPRPRPYIGPRP | 0.0261
RRIRMRPPRLPRPRPRPAEQPRP | 0.395
RRIRGRPPRLPRPRPRPQGGPRP | 0.127
RRIRCRPPRLPRPRPRPFLRPRP | -0.0477
RRIRVRPPRLPRPRPRPHVTPRP | -0.304
RRIRNRPPRLPRPRPRPHQHPRP | -0.654

Sequence | shrunken log2 fold change
RRIRYRPPRLPRPRPRPKMLPRP | 0.0981
RRIRQRPPRLPRPRPRPLMKPRP | 0.158
RRIRGRPPRLPRPRPRPWAKPRP | -0.0167
RRIRGRPPRLPRPRPRPIVEPRP | 0.194
RRIRWRPPRLPRPRPRPWSPPRP | -0.0542
RRIRPRPPRLPRPRPRPNRPPRP | 0.274
RRIRVRPPRLPRPRPRPGAHPRP | 0.0262
RRIRFRPPRLPRPRPRPMNRPRP | -0.0364
RRIRNRPPRLPRPRPRPYAQPRP | -0.55
RRIRVRPPRLPRPRPRPWRGPRP | 0.378
RRIRTRPPRLPRPRPRPERVPRP | 0.296
RRIRMRPPRLPRPRPRPRLHPRP | 0.721
RRIRDRPPRLPRPRPRPNIMPRP | -0.367
RRIRARPPRLPRPRPRPGWGPRP | 0.463
RRIRARPPRLPRPRPRPIREPRP | -0.018
RRIRNRPPRLPRPRPRPVWKPRP | 0.119
RRIRMRPPRLPRPRPRPGVKPRP | 0.172
RRIRGRPPRLPRPRPRPLGGPRP | 0.615
RRIRRRPPRLPRPRPRPIHSPRP | 0.0881
RRIRPRPPRLPRPRPRPYNRPRP | -0.0087
RRIRWRPPRLPRPRPRPLDRPRP | 0.146

Sequence | shrunken log2 fold change
RRIRYRPPRLPRPRPRPAQSPRP | 0.256
RRIRARPPRLPRPRPRPDGYPRP | 0.647
RRIRKRPPRLPRPRPRPVHCPRP | 0.0295
RRIRERPPRLPRPRPRPNYEPRP | -0.182
RRIRHRPPRLPRPRPRPKGEPRP | -0.0141
RRIRYRPPRLPRPRPRPYPHPRP | -0.112
RRIRKRPPRLPRPRPRPLEEPRP | 1.76
RRIRRRPPRLPRPRPRPEAGPRP | 0.731
RRIRQRPPRLPRPRPRPHQIPRP | 0.0211
RRIRIRPPRLPRPRPRPTMAPRP | -0.445
RRIRRRPPRLPRPRPRPLRMPRP | 1.2
RRIRGRPPRLPRPRPRPNYHPRP | -0.179
RRIRWRPPRLPRPRPRPLDAPRP | 0.354
RRIRGRPPRLPRPRPRPNHRPRP | 0.00454
RRIRYRPPRLPRPRPRPNHMPRP | -0.611
RRIRQRPPRLPRPRPRPSLCPRP | -0.0894
RRIRYRPPRLPRPRPRPCVCPRP | -1.24
RRIRERPPRLPRPRPRPFCFPRP | -0.106
RRIRIRPPRLPRPRPRPEWHPRP | -0.514
RRIRCRPPRLPRPRPRPPWDPRP | 0.526
RRIRVRPPRLPRPRPRPATSPRP | -0.0495
